Biological target: FtsZ-F268C labeled with fluorescein 5-maleimide (donor) or tetramethylrhodamine 5-maleimide (acceptor) (E. coli) (UniProt P0A9A6)

FRET assay of subunit exchange of FtsZ protofilaments at steady state with ZipA, pH 6.5: reaction time τ (13.1 s for FtsZ alone): 25.2 s
Substance: N-terminally truncated ZipA (26-328) from E. coli (from UniProt P77173 26-328) (domain or fragment)
